# Numbering of substitutions follows the chain as printed. Names may count otherwise. Where two headings read alike, the source gives them in different places.
# B1: QP42824285 (antibody)
# chain 1: MEFGLSWLFLVAILKGVQCQVQLVQSGAEVKKPGESVKVSCKASGYTFTNYGMNWVKQAPGQGLEWMGWINTYTGEPTYADKFQGRVTMTTDTSTSTAYMEIRNLGGDDTAVYYCARWSWSDGYYVYFDYWGQGTSVTVSSGGGSGGGGSYVLTQPSSVSVAPGQTATISCGGHNIGSKNVHWYQQRPGQSPVLVIYQDNKRPSGIPERFSGSNSGNTATLTISGTQAMDEADYYCQVWDNYSVLFGGGTKLTVLGGGGSGGGGSGGGGSRTVAAPSVFIFPPSDEQLKSGTASVVCLLNNFYPREAKVQWKVDNALQSGNSQESVTEQDSKDSTYSLSSTLTLSKADYEKHKVYACEVTHQGLSSPVTKSFNRGEC
# chain 2: MEFGLSWLFLVAILKGVQCQVQLVQSGAEVKKPGESLKVSCKASGYTFTSYYMHWVRQAPGQGLEWMGIINPSGGSTSYAQKFQGRVTMTRDTSTSTVYMELSSLRSEDTAVYYCARGSAYYYDFADYWGQGTLVTVSSGGGSGGGGDIVMTQSPDSLTVSLGERTTINCKSSQSVLDSSTNKNSLAWYQQKPGQPPKLLLSWASTRESGIPDRFSGSGSGTDFTLTIDSPQPEDSATYYCQQSAHFPITFGQGTRLEIKGGGGSGGGGSGGGGSASTKGPSVFPLAPSSKSTSGGTAALGCLVKDYFPEPVTVSWNSGALTSGVHTFPAVLQSSGLYSLSSVVTVPSSSLGTQTYICNVNHKPSNTKVDKKVEPKSCDKTHTCPPCPAPEAAGGPSVFLFPPKPKDTLMISRTPEVTCVVVDVSHEDPEVKFNWYVDGVEVHNAKTKPREEQYNSTYRVVSVLTVLHQDWLNGKEYKCKVSNKALPAPIEKTISKAKGQPREPQVYTLPPSREEMTKNQVSLSCAVKGFYPSDIAVEWESNGQPENNYKTTPPVLDSDGSFFLVSKLTVDKSRWQQGNVFSCSVMHEALHNRYTQKSLSLSPGKGGSHHHHHH
# chain 3: not shown
# chain 4: not shown
# B2: CD33/CD16A/IL-15 trifunctional fusion protein QP43394340 (FC with L234A/L235A mutation for eliminating function) (bispecific antibody)
# chain 1: not shown
# chain 2: not shown
# light: DIVMTQSPDSLTVSLGERTTINCKSSQSVLDSSTNKNSLAWYQQKPGQPPKLLLSWASTRESGIPDRFSGSGSGTDFTLTIDSPQPEDSATYYCQQSAHFPITFGQGTRLEIKRTVAAPSVFIFPPSDEQLKSGTASVVCLLNNFYPREAKVQWKVDNALQSGNSQESVTEQDSKDSTYSLSSTLTLSKADYEKHKVYACEVTHQGLSSPVTKSFNRGEC
# heavy: QVQLVQSGAEVKKPGESVKVSCKASGYTFTNYGMNWVKQAPGQGLEWMGWINTYTGEPTYADKFQGRVTMTTDTSTSTAYMEIRNLGGDDTAVYYCARWSWSDGYYVYFDYWGQGTSVTVSSASTKGPSVFPLAPSSKSTSGGTAALGCLVKDYFPEPVTVSWNSGALTSGVHTFPAVLQSSGLYSLSSVVTVPSSSLGTQTYICNVNHKPSNTKVDKKVEPKSCDKTHTCPPCPAPEAAGGPSVFLFPPKPKDTLMISRTPEVTCVVVDVSHEDPEVKFNWYVDGVEVHNAKTKPREEQYNSTYRVVSVLTVLHQDWLNGKEYKCKVSNKALPAPIEKTISKAKGQPREPQVYTLPPSREEMTKNQVSLSCAVKGFYPSDIAVEWESNGQPENNYKTTPPVLDSDGSFFLVSKLTVDKSRWQQGNVFSCSVMHEALHNRYTQKSLSLSPGK
# B3: CD33/CD16A/IL-15 trifunctional fusion protein QP743745 (FC wild-type) (bispecific antibody)
# chain 1: not shown
# chain 2: not shown
# light: B2 light
# heavy: B2 heavy with A239L, A240L
# B4: QP42664400 (antibody)
# chain 1: B2 light
# chain 2: QVQLVQSGAEVKKPGESVKVSCKASGYTFTNYGMNWVKQAPGQGLEWMGWINTYTGEPTYADKFQGRVTMTTDTSTSTAYMEIRNLGGDDTAVYYCARWSWSDGYYVYFDYWGQGTSVTVSSASTKGPSVFPLAPSSKSTSGGTAALGCLVKDYFPEPVTVSWNSGALTSGVHTFPAVLQSSGLYSLSSVVTVPSSSLGTQTYICNVNHKPSNTKVDKKVEPKSCDKTHTCPPCPAPEAAGGPSVFLFPPKPKDTLMISRTPEVTCVVVDVSHEDPEVKFNWYVDGVEVHNAKTKPREEQYNSTYRVVSVLTVLHQDWLNGKEYKCKVSNKALPAPIEKTISKAKGQPREPQVYTLPPSREEMTKNQVSLSCAVKGFYPSDIAVEWESNGQPENNYKTTPPVLDSDGSFFLVSKLTVDKSRWQQGNVFSCSVMHEALHNRYTQKSLSLSPGKGGSHHHHHH
# chain 3: not shown
# chain 4: not shown
# B5: QP42664415 (antibody)
# chain 1: B2 light
# chain 2: B4 chain 2
# chain 3: MEFGLSWLFLVAILKGVQCQVQLVQSGAEVKKPGESLKVSCKASGYTFTSYYMHWVRQAPGQGLEWMGIINPSGGSTSYAQKFQGRVTMTRDTSTSTVYMELSSLRSEDTAVYYCARGSAYYYDFADYWGQGTLVTVSSGGGGSGGGGSGGGGSITCPPPMSVEHADIWVKSYSLYSRERYICNSGFKRKAGTCSLTECVLNKATNVAHWTTPSLKCIR
# chain 4: not shown
# B6: QP42664412 (antibody)
# chain 1: B2 light
# chain 2: B4 chain 2
# chain 3: MEFGLSWLFLVAILKGVQCSYVLTQPSSVSVAPGQTATISCGGHNIGSKNVHWYQQRPGQSPVLVIYQDNKRPSGIPERFSGSNSGNTATLTISGTQAMDEADYYCQVWDNYSVLFGGGTKLTVLGGGGSGGGGSGGGGSITCPPPMSVEHADIWVKSYSLYSRERYICNSGFKRKAGTCSLTECVLNKATNVAHWTTPSLKCIR
# chain 4: not shown
# B7: QP42664269 (antibody)
# chain 1: B2 light
# chain 2: B4 chain 2
# chain 3: not shown
# chain 4: not shown
# B8: CD33/CD16A bispecific antibody QP4115777778 (FC wild-type) (bispecific antibody)
# chain: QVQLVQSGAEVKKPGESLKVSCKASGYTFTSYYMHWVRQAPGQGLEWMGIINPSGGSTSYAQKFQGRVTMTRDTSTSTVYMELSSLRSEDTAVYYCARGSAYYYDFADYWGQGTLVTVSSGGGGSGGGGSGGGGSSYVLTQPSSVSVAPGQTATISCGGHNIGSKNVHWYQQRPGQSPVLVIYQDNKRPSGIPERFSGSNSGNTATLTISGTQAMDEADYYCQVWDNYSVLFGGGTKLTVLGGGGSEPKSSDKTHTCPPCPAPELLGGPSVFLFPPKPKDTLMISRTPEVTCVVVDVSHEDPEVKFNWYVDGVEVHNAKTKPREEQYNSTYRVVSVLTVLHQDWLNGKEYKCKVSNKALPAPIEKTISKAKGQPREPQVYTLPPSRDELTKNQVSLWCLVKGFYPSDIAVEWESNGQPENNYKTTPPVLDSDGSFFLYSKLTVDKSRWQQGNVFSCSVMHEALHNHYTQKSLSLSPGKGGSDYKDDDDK
# heavy: B4 chain 2 with A239L, A240L
# light: B2 light
# B9: QP42664406 (antibody)
# chain 1: B2 light
# chain 2: B4 chain 2
# chain 3: not shown
# chain 4: not shown
# B10: QP42664421 (antibody)
# chain 1: B2 light
# chain 2: B4 chain 2
# chain 3: MEFGLSWLFLVAILKGVQCITCPPPMSVEHADIWVKSYSLYSRERYICNSGFKRKAGTCSLTECVLNKATNVAHWTTPSLKCIRGGGSGGGGGGGGSSYVLTQPSSVSVAPGQTATISCGGHNIGSKNVHWYQQRPGQSPVLVIYQDNKRPSGIPERFSGSNSGNTATLTISGTQAMDEADYYCQVWDNYSVLFGGGTKLTVL
# chain 4: not shown
# B11: QP42884285 (antibody)
# chain 1: DIVMTQSPDSLTVSLGERTTINCKSSQSVLDSSTNKNSLAWYQQKPGQPPKLLLSWASTRESGIPDRFSGSGSGTDFTLTIDSPQPEDSATYYCQQSAHFPITFGQGTRLEIKTVAAPSVFIFPPSYVLTQPSSVSVAPGQTATISCGGHNIGSKNVHWYQQRPGQSPVLVIYQDNKRPSGIPERFSGSNSGNTATLTISGTQAMDEADYYCQVWDNYSVLFGGGTKLTVLRTVAAPSVFIFPPSDEQLKSGTASVVCLLNNFYPREAKVQWKVDNALQSGNSQESVTEQDSKDSTYSLSSTLTLSKADYEKHKVYACEVTHQGLSSPVTKSFNRGEC
# chain 2: QVQLVQSGAEVKKPGESVKVSCKASGYTFTNYGMNWVKQAPGQGLEWMGWINTYTGEPTYADKFQGRVTMTTDTSTSTAYMEIRNLGGDDTAVYYCARWSWSDGYYVYFDYWGQGTSVTVSSASTKGPQVQLVQSGAEVKKPGESLKVSCKASGYTFTSYYMHWVRQAPGQGLEWMGIINPSGGSTSYAQKFQGRVTMTRDTSTSTVYMELSSLRSEDTAVYYCARGSAYYYDFADYWGQGTLVTVSSASTKGPSVFPLAPSSKSTSGGTAALGCLVKDYFPEPVTVSWNSGALTSGVHTFPAVLQSSGLYSLSSVVTVPSSSLGTQTYICNVNHKPSNTKVDKKVEPKSCDKTHTCPPCPAPEAAGGPSVFLFPPKPKDTLMISRTPEVTCVVVDVSHEDPEVKFNWYVDGVEVHNAKTKPREEQYNSTYRVVSVLTVLHQDWLNGKEYKCKVSNKALPAPIEKTISKAKGQPREPQVYTLPPSREEMTKNQVSLSCAVKGFYPSDIAVEWESNGQPENNYKTTPPVLDSDGSFFLVSKLTVDKSRWQQGNVFSCSVMHEALHNRYTQKSLSLSPGKGGSHHHHHH
# chain 3: not shown
# chain 4: not shown
# Key:
# [1] = target: T1, CD33 naturally expressed on HL60 cells (human, UniProt P20138 18-364); assay: FACS
# [2] = target: T1, CD33 naturally expressed on HL60 cells; assay: FACS; remark: listed apart in the source
# T1 sequence (P20138 18-364): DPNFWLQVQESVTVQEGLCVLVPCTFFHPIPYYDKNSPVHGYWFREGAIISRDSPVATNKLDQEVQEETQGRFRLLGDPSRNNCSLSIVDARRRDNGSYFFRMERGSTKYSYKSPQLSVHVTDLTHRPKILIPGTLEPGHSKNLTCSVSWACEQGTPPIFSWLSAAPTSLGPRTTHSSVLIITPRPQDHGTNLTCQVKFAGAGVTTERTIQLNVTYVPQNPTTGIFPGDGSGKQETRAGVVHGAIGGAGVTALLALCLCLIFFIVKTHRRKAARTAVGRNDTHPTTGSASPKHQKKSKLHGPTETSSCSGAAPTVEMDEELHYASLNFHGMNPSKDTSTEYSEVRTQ
binder,measurement,setting,value
B1,EC50,[1],2.31 nM
B2,EC50,[2],13.4 nM
B3,EC50,[2],8.08 nM
B4,EC50,[1],8.39 nM
B5,EC50,[1],14.2 nM
B6,EC50,[1],12 nM
B7,EC50,[1],2.27 nM
B8,EC50,[2],9.63 nM
B9,EC50,[1],11.3 nM
B10,EC50,[1],11.6 nM
B11,EC50,[1],1.97 nM
